According to the supplement of paper PMC9170038:

Tested on: MS2 coat protein
Assay: apparent KD of MS2 coat protein; designed switch direction (-1 OFF switch, 1 ON switch): -1; higher = weaker reporter binding
Summary of the method: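 Each step of the titration lasted 0.8–1.5 h at the lowest concentration and 10–20 min at the highest. The protein, SNAP-549-labelled MS2 coat protein, went from 0.7 or 1.5 nM doubling to 3 µM over RNA switches transcribed on Illumina chips by stalled E. coli RNA polymerase. Normalised cluster fluorescence was curve-fitted, and the per-design median over clusters is given as apparent KD.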

[1] = input ligand: microRNA oligo, concentration not stated
[2] = Eterna round: R95, input ligand: FMN 200 uM
[3] = Eterna round: R95, input ligand: microRNA oligo, concentration not stated
[4] = Eterna round: R95, input ligand: none

Sequence | apparent KD of MS2 coat protein (input ligand: FMN 200 uM) [nM] | apparent KD of MS2 coat protein [1] [nM] | apparent KD of MS2 coat protein (input ligand: none) [nM] | apparent KD of MS2 coat protein [2] [nM] | apparent KD of MS2 coat protein [3] [nM] | apparent KD of MS2 coat protein [4] [nM]
AACAGUACAGGAUAUACAUGAGGAUCACCCAUGUGAGAAUUAAGUGGCGAACCACAAAGUAGAAGGGUACUGGA [Mat - Exclusion 3 - JL mod - D1] (Eterna round: R96, puzzle: Exclusion 3) | 98.2 | 38.5 | 46.3 | – | – | –
AACAGUAGAGGAUAUACACGAACAAACAUGAGGAUCACCCAUGUGAAACCGUGCUGUCCGGUAGAAGGCUACUAUA [Zavetiaton] (Eterna round: R97, puzzle: Exclusion 5) | 40.6 | – | 17.4 | – | – | –
AACCUGAGGCAAAGCUUUAGGUGUACAUGAGGAUCACCCAUGUAGGAUAUGGUAGGCAAAGCUUACCAGAAGGACAUUAUGAUA [Mat - Exclusion NG 3 - Mod of JL - D52] (Eterna round: R96, puzzle: Exclusion NG 3) | 66.9 | 44 | 53.1 | – | – | –
AACCUGAGGCUUUGCUUUAGGUGUACAUGAGGAUCACCCAUGUAGGAUAUGGUAGGCUUUGCUUACCAGAAGGACAUUAUGAUU [JL ENG3 1.18] (Eterna round: R96, puzzle: Exclusion NG 3) | 119 | 33.4 | 37.1 | – | – | –
AACGAAGCAGGAUAUACAUGAGGAUCACCCAUGUGCUUGCAUGGCGUGGGAAGUCAUAGUAGAAGGGCUACGCC [EX3 #62] (Eterna round: R97, puzzle: Exclusion 3) | 53.6 | – | 22.1 | – | – | –
AACGAGUGAGGAUAUCUUGACGGUUUGCAUCAGGCCCUCACAGAGAAGGCACUUGAGGAUCACCCAAGUGACCA [Eredgeinus] (Eterna round: R97, puzzle: Exclusion 4) | 16.5 | – | 14.2 | – | – | –
AACGUACAGCAAAGCUGUACGCGUACAUGAGGAUCACCCAUGUAGGAUAUGGUAGGCAAAGCUUACUAGAAGGAUAGAGUGAUC [Mat - Exclusion NG 3 - Mod of JL - D77] (Eterna round: R96, puzzle: Exclusion NG 3) | 497 | 358 | 333 | – | – | –
AACUAACAUGUAGGAUAUGCGUGGCGAAGCUAUGCAGAAGGACAUGAGGAUCACCCAUGUUUUAGCGUCUGCGUACAGAUGCAU [JL ENG1 1.41] (Eterna round: R96, puzzle: Exclusion NG 1) | 146 | 16.6 | 20.8 | – | – | –
AACUAGGCAGGAUAUACAUGAGGAUCACCCAUGUGCCAAUACAAAGGGACUAACAGAGGUAGAAGGGCCUAGAA [ChP 13.04.2015 #2] (puzzle: Exclusion 3) | – | – | – | 155 | 36.8 | 34.3
AACUGAUCUUGAGGAUAUCAAACACAUGAGGAUCACCCAUGUCACGAGACGGUGCUUUCCAGGAGUGAGAAGGUAAGCAGCGAG [Eternabot solution 44] (Eterna round: R96, puzzle: Exclusion NG 2) | 31 | 28 | 37.1 | – | – | –
AACUGGACAGGAUAUGUUCUUGAGCACUUGAGGAUCACCCAAGUCAUCAAGAACUCAGGCACAGAAGGGUUUAUGA [jl-ex5.4.60 ViennaUCT mod] (Eterna round: R97, puzzle: Exclusion 5) | 28.9 | – | 13.4 | – | – | –
AAGAAACAUGAGGAUCACCCAUGUCAGGAUAUCUCGAAAAGCAUAGAAAUAUGCGAAGAGAGAAGGGACUGCCC [ChP Ext 10-04-2015 #2] (puzzle: Exclusion 1) | – | – | – | 20.8 | 19.3 | 19.2
AAGAAACAUGAGGAUCACCCAUGUGAGGAUAUGAAAAAGAAAAGAAAAGAAAGAAGGAUCAGAAGGCACAAAGG [salish99-ex1_r3_025] (puzzle: Exclusion 1) | – | – | – | 43 | 30.3 | 34.1
AAGAAACAUGAGGAUCACCCAUGUGAGGAUAUGAAAAAGAAAAUAAAAUAAAGAAGAAUCAGAAGGCACAAAGG [Mat - Mod of Hog D4] (puzzle: Exclusion 1) | – | – | – | 34 | 24.9 | 28.1
AAGAAACAUGAGGAUCACCCAUGUGAGGAUAUGACUAAGAAAAGAAAAGAAAGAAGAGUCAGAAGGCACAAAGG [salish99-ex1_r3_068] (puzzle: Exclusion 1) | – | – | – | 215 | 128 | 189
AAGAAACAUGAGGAUCACCCAUGUGAGGAUAUGAGGAAGAAAAGAAAAGAAAGAAGACUCAGAAGGCACAAAGG [salish99-ex1_r3_073] (puzzle: Exclusion 1) | – | – | – | 189 | 49 | 76.8
AAGAAACAUGAGGAUCACCCAUGUGAGGAUAUGAUAAAGAAAAGAAAAGAAAGAAGAUUCAGAAGGCACAAAGG [salish99-ex1_r3_034] (puzzle: Exclusion 1) | – | – | – | 62.3 | 39.4 | 48.7
AAGAAACAUGAGGAUCACCCAUGUGAGGAUAUGAUGCGAAUUAUGUAUGUAGUAAGCAUCAGAAGGCACAAAGG [Mat - Mod Mix D39] (puzzle: Exclusion 1) | – | – | – | – | 142 | –
AAGAAACAUGAGGAUCACCCAUGUGAGGAUAUGAUUAAGAAAAGAAAAGAAAGAAGAUUCAGAAGGCACAAAGG [salish99-ex1_r3_054] (puzzle: Exclusion 1) | – | – | – | 91.4 | 72.5 | 82.9
AAGAAACAUGAGGAUCACCCAUGUGAGGAUAUGGCCCGCCCGGCGUAAGCAAAAUAAAUCAGAAGGCACAAAGG [salish99_ex1_r4_008] (Eterna round: R97, puzzle: Exclusion 1) | 39.5 | – | 47.2 | – | – | –
AAGAAACAUGAGGAUCACCCAUGUGAGGAUAUGUAAAAGAAAAUAAAAUAAAUAAGAAACAGAAGGCACAAAGG [Mat - Mod of Hog D19] (puzzle: Exclusion 1) | – | – | – | 53.2 | 39.2 | 44.8
AAGAAACGAGGAUAUACAAUUGAGUGAGAGAGGGAAGUGUGACAUGAGGAUCACCCAUGUAGAAGGCGUGAGAG [JR_Exclu2_Sub086] (puzzle: Exclusion 2) | – | – | – | 116 | 82.3 | 80.4
